{"source": "paper PMC3531806", "binders": {"B1": {"name": "H1N1 WSN NP protein (nucleoprotein of influenza A/WSN/1933), wild type, P15682 1-498 (natural protein)", "chain": "MATKGTKRSYEQMETDGERQNATEIRASVGKMIGGIGRFYIQMCTELKLSDYEGRLIQNSLTIERMVLSAFDERRNKYLEEHPSAGKDPKKTGGPIYRRVDGKWMRELILYDKEEIRRIWRQANNGDDATAGLTHMMIWHSNLNDATYQRTRALVRTGMDPRMCSLMQGSTLPRRSGAAGAAVKGVGTMVMELIRMIKRGINDRNFWRGENGRRTRIAYERMCNILKGKFQTAAQRAMVDQVRESRNPGNAEFEDLIFLARSALILRGSVAHKSCLPACVYGPAVASGYDFEREGYSLVGIDPFRLLQNSQVYSLIRPNENPAHKSQLVWMACHSAAFEDLRVSSFIRGTKVVPRGKLSTRGVQIASNENMETMESSTLELRSRYWAIRTRSGGNTNQQRASSGQISIQPTFSVQRNLPFDRPTIMAAFTGNTEGRTSDMRTEIIRLMESARPEDVSFQGRGVFELSDEKAASPIVPSFDMSNEGSYFFGDNAEEYDN"}}, "target": "T1, H1N1 WSN NP protein (nucleoprotein of influenza A/WSN/1933), wild type (influenza A virus A/WSN/1933 (H1N1)), P15682", "T1 chain": "B1 chain", "test": "SEC", "details": "remark: other sources report otherwise"}
{"binder": "B1", "values": [{"measurement": "half-life (t1/2) of the dissociation of trimers to monomers", "result": 10, "unit": "h"}, {"measurement": "stoichiometry N", "result": 3}]}
